In US20140087995A1 (published 2014) one finds IC50 data, which are given here for six molecules.

Numbered stars: 1 amine (or outer) side, 2 acyl side, 3 side chain; on linkers, the order of the positions; unused ones are H or OH. Bridge positions count the residues as written; N and C are the ends. Side chains are listed from the residue outwards. Ends that are not written are not given here. * marks the point of attachment. C20 diacid = O=C(O)CCCCCCCCCCCCCCCCCCC(=O)*; γGlu = O=C(O)[C@H](CCC(=O)[*:2])N[*:1]; AEEA = NCCOCCOCC(=O)O

T1: human amylin receptor (amylin 3(a) receptor: human calcitonin receptor with RAMP-3) (human, UniProt P30988 25-474; O60896 24-148)
T1 construct: whole, on cells; also called hAmylin-R; hAmylinR
T1 sequence (looked up) 1: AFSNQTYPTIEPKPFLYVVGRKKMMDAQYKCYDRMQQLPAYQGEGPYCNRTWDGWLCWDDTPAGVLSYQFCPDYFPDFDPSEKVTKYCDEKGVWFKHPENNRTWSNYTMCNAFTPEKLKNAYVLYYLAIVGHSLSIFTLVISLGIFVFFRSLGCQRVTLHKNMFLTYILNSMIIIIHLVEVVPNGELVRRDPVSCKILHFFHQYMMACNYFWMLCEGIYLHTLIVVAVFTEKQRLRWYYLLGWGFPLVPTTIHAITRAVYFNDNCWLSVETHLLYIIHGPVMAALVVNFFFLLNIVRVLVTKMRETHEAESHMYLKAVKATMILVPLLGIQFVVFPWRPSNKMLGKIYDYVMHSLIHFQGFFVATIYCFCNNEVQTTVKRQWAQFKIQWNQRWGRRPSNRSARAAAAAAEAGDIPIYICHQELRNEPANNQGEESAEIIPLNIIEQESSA
T1 sequence (looked up) 2: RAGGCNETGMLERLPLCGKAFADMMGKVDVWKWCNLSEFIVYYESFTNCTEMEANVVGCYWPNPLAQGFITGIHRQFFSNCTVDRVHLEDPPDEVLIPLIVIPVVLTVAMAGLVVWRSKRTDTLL

B1: N^ε1-[2-[2-[2-[[(4S)-4-carboxy-4-(19-carboxynonadecanoylamino)butanoyl]amino]ethoxy]ethoxy]acetyl]-[Arg17,Pro21,Pro27,Pro29,Pro31]-h-amylin (peptide)
peptide: K([AEEA-γGlu-C20 diacid])CNTATCATQRLANFLRHSSPNFGAIPSPTPVGSNTY-NH2
modifications: disulfide 2-7; N-terminus assumed
SMILES: CC[C@H](C)[C@H](NC(=O)[C@H](C)NC(=O)CNC(=O)[C@H](Cc1ccccc1)NC(=O)[C@H](CC(N)=O)NC(=O)[C@@H]1CCCN1C(=O)[C@H](CO)NC(=O)[C@H](CO)NC(=O)[C@H](Cc1c[nH]cn1)NC(=O)[C@H](CCCNC(=N)N)NC(=O)[C@H](CC(C)C)NC(=O)[C@H](Cc1ccccc1)NC(=O)[C@H](CC(N)=O)NC(=O)[C@H](C)NC(=O)[C@H](CC(C)C)NC(=O)[C@H](CCCNC(=N)N)NC(=O)[C@H](CCC(N)=O)NC(=O)[C@@H](NC(=O)[C@H](C)NC(=O)[C@@H]1CSSC[C@H](NC(=O)[C@@H](N)CCCCNC(=O)COCCOCCNC(=O)CC[C@H](NC(=O)CCCCCCCCCCCCCCCCCCC(=O)O)C(=O)O)C(=O)N[C@@H](CC(N)=O)C(=O)N[C@@H]([C@@H](C)O)C(=O)N[C@@H](C)C(=O)N[C@@H]([C@@H](C)O)C(=O)N1)[C@@H](C)O)C(=O)N1CCC[C@H]1C(=O)N[C@@H](CO)C(=O)N1CCC[C@H]1C(=O)N[C@H](C(=O)N1CCC[C@H]1C(=O)N[C@H](C(=O)NCC(=O)N[C@@H](CO)C(=O)N[C@@H](CC(N)=O)C(=O)N[C@H](C(=O)N[C@@H](Cc1ccc(O)cc1)C(N)=O)[C@@H](C)O)C(C)C)[C@@H](C)O
notes: also called 54; compound 54
B2: N^ε1-[2-[2-[2-[[(4S)-4-carboxy-4-(19-carboxynonadecanoylamino)butanoyl]amino]ethoxy]ethoxy]acetyl]-[Arg17,Pro21,Pro27,Pro29,Pro34]-h-amylin (peptide)
peptide: K([AEEA-γGlu-C20 diacid])CNTATCATQRLANFLRHSSPNFGAIPSPTNVGPNTY-NH2
modifications: disulfide 2-7; N-terminus assumed
SMILES: CC[C@H](C)[C@H](NC(=O)[C@H](C)NC(=O)CNC(=O)[C@H](Cc1ccccc1)NC(=O)[C@H](CC(N)=O)NC(=O)[C@@H]1CCCN1C(=O)[C@H](CO)NC(=O)[C@H](CO)NC(=O)[C@H](Cc1c[nH]cn1)NC(=O)[C@H](CCCNC(=N)N)NC(=O)[C@H](CC(C)C)NC(=O)[C@H](Cc1ccccc1)NC(=O)[C@H](CC(N)=O)NC(=O)[C@H](C)NC(=O)[C@H](CC(C)C)NC(=O)[C@H](CCCNC(=N)N)NC(=O)[C@H](CCC(N)=O)NC(=O)[C@@H](NC(=O)[C@H](C)NC(=O)[C@@H]1CSSC[C@H](NC(=O)[C@@H](N)CCCCNC(=O)COCCOCCNC(=O)CC[C@H](NC(=O)CCCCCCCCCCCCCCCCCCC(=O)O)C(=O)O)C(=O)N[C@@H](CC(N)=O)C(=O)N[C@@H]([C@@H](C)O)C(=O)N[C@@H](C)C(=O)N[C@@H]([C@@H](C)O)C(=O)N1)[C@@H](C)O)C(=O)N1CCC[C@H]1C(=O)N[C@@H](CO)C(=O)N1CCC[C@H]1C(=O)N[C@H](C(=O)N[C@@H](CC(N)=O)C(=O)N[C@H](C(=O)NCC(=O)N1CCC[C@H]1C(=O)N[C@@H](CC(N)=O)C(=O)N[C@H](C(=O)N[C@@H](Cc1ccc(O)cc1)C(N)=O)[C@@H](C)O)C(C)C)[C@@H](C)O
notes: also called 56; compound 56
B3: N^ε1-[2-[2-[2-[[(4S)-4-carboxy-4-(19-carboxynonadecanoylamino)butanoyl]amino]ethoxy]ethoxy]acetyl]-[Arg17,Pro21,Pro27,Pro31,His35]-h-amylin (peptide)
peptide: K([AEEA-γGlu-C20 diacid])CNTATCATQRLANFLRHSSPNFGAIPSSTPVGSHTY-NH2
modifications: disulfide 2-7; N-terminus assumed
SMILES: CC[C@H](C)[C@H](NC(=O)[C@H](C)NC(=O)CNC(=O)[C@H](Cc1ccccc1)NC(=O)[C@H](CC(N)=O)NC(=O)[C@@H]1CCCN1C(=O)[C@H](CO)NC(=O)[C@H](CO)NC(=O)[C@H](Cc1c[nH]cn1)NC(=O)[C@H](CCCNC(=N)N)NC(=O)[C@H](CC(C)C)NC(=O)[C@H](Cc1ccccc1)NC(=O)[C@H](CC(N)=O)NC(=O)[C@H](C)NC(=O)[C@H](CC(C)C)NC(=O)[C@H](CCCNC(=N)N)NC(=O)[C@H](CCC(N)=O)NC(=O)[C@@H](NC(=O)[C@H](C)NC(=O)[C@@H]1CSSC[C@H](NC(=O)[C@@H](N)CCCCNC(=O)COCCOCCNC(=O)CC[C@H](NC(=O)CCCCCCCCCCCCCCCCCCC(=O)O)C(=O)O)C(=O)N[C@@H](CC(N)=O)C(=O)N[C@@H]([C@@H](C)O)C(=O)N[C@@H](C)C(=O)N[C@@H]([C@@H](C)O)C(=O)N1)[C@@H](C)O)C(=O)N1CCC[C@H]1C(=O)N[C@@H](CO)C(=O)N[C@@H](CO)C(=O)N[C@H](C(=O)N1CCC[C@H]1C(=O)N[C@H](C(=O)NCC(=O)N[C@@H](CO)C(=O)N[C@@H](Cc1c[nH]cn1)C(=O)N[C@H](C(=O)N[C@@H](Cc1ccc(O)cc1)C(N)=O)[C@@H](C)O)C(C)C)[C@@H](C)O
notes: also called 57; compound 57
B4: N^ε1-[2-[2-[2-[[(4S)-4-carboxy-4-(19-carboxynonadecanoylamino)butanoyl]amino]ethoxy]ethoxy]acetyl]-[Arg17,Pro21,Pro27,Pro34]-h-amylin (peptide)
peptide: K([AEEA-γGlu-C20 diacid])CNTATCATQRLANFLRHSSPNFGAIPSSTNVGPNTY-NH2
modifications: disulfide 2-7; N-terminus assumed
SMILES: CC[C@H](C)[C@H](NC(=O)[C@H](C)NC(=O)CNC(=O)[C@H](Cc1ccccc1)NC(=O)[C@H](CC(N)=O)NC(=O)[C@@H]1CCCN1C(=O)[C@H](CO)NC(=O)[C@H](CO)NC(=O)[C@H](Cc1c[nH]cn1)NC(=O)[C@H](CCCNC(=N)N)NC(=O)[C@H](CC(C)C)NC(=O)[C@H](Cc1ccccc1)NC(=O)[C@H](CC(N)=O)NC(=O)[C@H](C)NC(=O)[C@H](CC(C)C)NC(=O)[C@H](CCCNC(=N)N)NC(=O)[C@H](CCC(N)=O)NC(=O)[C@@H](NC(=O)[C@H](C)NC(=O)[C@@H]1CSSC[C@H](NC(=O)[C@@H](N)CCCCNC(=O)COCCOCCNC(=O)CC[C@H](NC(=O)CCCCCCCCCCCCCCCCCCC(=O)O)C(=O)O)C(=O)N[C@@H](CC(N)=O)C(=O)N[C@@H]([C@@H](C)O)C(=O)N[C@@H](C)C(=O)N[C@@H]([C@@H](C)O)C(=O)N1)[C@@H](C)O)C(=O)N1CCC[C@H]1C(=O)N[C@@H](CO)C(=O)N[C@@H](CO)C(=O)N[C@H](C(=O)N[C@@H](CC(N)=O)C(=O)N[C@H](C(=O)NCC(=O)N1CCC[C@H]1C(=O)N[C@@H](CC(N)=O)C(=O)N[C@H](C(=O)N[C@@H](Cc1ccc(O)cc1)C(N)=O)[C@@H](C)O)C(C)C)[C@@H](C)O
notes: also called 50; compound 50
B5: N^ε1-[2-[2-[2-[[(4S)-4-carboxy-4-(19-carboxynonadecanoylamino)butanoyl]amino]ethoxy]ethoxy]acetyl]-[Arg17,Pro21,Pro27,Pro31]-h-amylin (peptide)
peptide: K([AEEA-γGlu-C20 diacid])CNTATCATQRLANFLRHSSPNFGAIPSSTPVGSNTY-NH2
modifications: disulfide 2-7; N-terminus assumed
SMILES: CC[C@H](C)[C@H](NC(=O)[C@H](C)NC(=O)CNC(=O)[C@H](Cc1ccccc1)NC(=O)[C@H](CC(N)=O)NC(=O)[C@@H]1CCCN1C(=O)[C@H](CO)NC(=O)[C@H](CO)NC(=O)[C@H](Cc1c[nH]cn1)NC(=O)[C@H](CCCNC(=N)N)NC(=O)[C@H](CC(C)C)NC(=O)[C@H](Cc1ccccc1)NC(=O)[C@H](CC(N)=O)NC(=O)[C@H](C)NC(=O)[C@H](CC(C)C)NC(=O)[C@H](CCCNC(=N)N)NC(=O)[C@H](CCC(N)=O)NC(=O)[C@@H](NC(=O)[C@H](C)NC(=O)[C@@H]1CSSC[C@H](NC(=O)[C@@H](N)CCCCNC(=O)COCCOCCNC(=O)CC[C@H](NC(=O)CCCCCCCCCCCCCCCCCCC(=O)O)C(=O)O)C(=O)N[C@@H](CC(N)=O)C(=O)N[C@@H]([C@@H](C)O)C(=O)N[C@@H](C)C(=O)N[C@@H]([C@@H](C)O)C(=O)N1)[C@@H](C)O)C(=O)N1CCC[C@H]1C(=O)N[C@@H](CO)C(=O)N[C@@H](CO)C(=O)N[C@H](C(=O)N1CCC[C@H]1C(=O)N[C@H](C(=O)NCC(=O)N[C@@H](CO)C(=O)N[C@@H](CC(N)=O)C(=O)N[C@H](C(=O)N[C@@H](Cc1ccc(O)cc1)C(N)=O)[C@@H](C)O)C(C)C)[C@@H](C)O
notes: also called 49; compound 49
B6: N^ε1-[2-[2-[2-[[(4S)-4-carboxy-4-(19-carboxynonadecanoylamino)butanoyl]amino]ethoxy]ethoxy]acetyl]-[Arg17,Pro21,Pro27,Pro34,His35]-h-amylin (peptide)
peptide: K([AEEA-γGlu-C20 diacid])CNTATCATQRLANFLRHSSPNFGAIPSSTNVGPHTY-NH2
modifications: disulfide 2-7; N-terminus assumed
SMILES: CC[C@H](C)[C@H](NC(=O)[C@H](C)NC(=O)CNC(=O)[C@H](Cc1ccccc1)NC(=O)[C@H](CC(N)=O)NC(=O)[C@@H]1CCCN1C(=O)[C@H](CO)NC(=O)[C@H](CO)NC(=O)[C@H](Cc1c[nH]cn1)NC(=O)[C@H](CCCNC(=N)N)NC(=O)[C@H](CC(C)C)NC(=O)[C@H](Cc1ccccc1)NC(=O)[C@H](CC(N)=O)NC(=O)[C@H](C)NC(=O)[C@H](CC(C)C)NC(=O)[C@H](CCCNC(=N)N)NC(=O)[C@H](CCC(N)=O)NC(=O)[C@@H](NC(=O)[C@H](C)NC(=O)[C@@H]1CSSC[C@H](NC(=O)[C@@H](N)CCCCNC(=O)COCCOCCNC(=O)CC[C@H](NC(=O)CCCCCCCCCCCCCCCCCCC(=O)O)C(=O)O)C(=O)N[C@@H](CC(N)=O)C(=O)N[C@@H]([C@@H](C)O)C(=O)N[C@@H](C)C(=O)N[C@@H]([C@@H](C)O)C(=O)N1)[C@@H](C)O)C(=O)N1CCC[C@H]1C(=O)N[C@@H](CO)C(=O)N[C@@H](CO)C(=O)N[C@H](C(=O)N[C@@H](CC(N)=O)C(=O)N[C@H](C(=O)NCC(=O)N1CCC[C@H]1C(=O)N[C@@H](Cc1c[nH]cn1)C(=O)N[C@H](C(=O)N[C@@H](Cc1ccc(O)cc1)C(N)=O)[C@@H](C)O)C(C)C)[C@@H](C)O
notes: also called 58; compound 58

In the assay the target is T1, human amylin receptor (amylin 3(a) …). As to the kind of experiment: SPA displacement of 125I-rat amylin, hAmylin 3(a) receptor membranes. In outline: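 SPA beads with BHK Amylin 3(a)/CRE-luc cell membranes (35 ng/μL final) in 50 mM Hepes pH 7.4, 1 mM CaCl2, 5 mM MgCl₂, 0.1% OA, 0.02% Tween20.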
In general terms: Displacement assays read how much labelled ligand stays bound in the presence of the test substance.
Usually IC50 stands for the concentration that gives 50% inhibition. Take B1: the 50% inhibitory concentration (IC50) is 0.03 nM.
For the molecule B2, the 50% inhibitory concentration (IC50) turned out to be 0.049 nM.
For B3, the IC50 came out at 0.115 nM.
Take B4: the half-inhibitory concentration (IC50) was 0.038 nM.
With B5 the figure was 1.19 nM; with B6, 0.088 nM.
